The source of these data is patent US9029105B2, “Microorganism producing L-methionine precursor and method of producing L-methionine and organic acid from the L-methionine precursor” (CJ Cheiljedang Corporation, priority 2006, dated 2015).

Format in all cases: biochemical
Data set [1] in a line: Feed-back inhibition of converting enzyme by methionine, OAHS as substrate. Conditions: presence of methionine. Here is the method:
(§1) Experiment was performed with O-acetylhomoserine by the same manner as described in Example <3-20>. O-acetylhomoserine was purified from the supernatant of fermented solution. The same reaction solutions and enzyme solutions as used for the experiment with O-succinylhomoserine were used for the reaction. […] Upon completion of one-hour reaction, HPLC was performed to confirm the final productions of methionine and […].
Feed-back inhibition in the presence or absence of methionine was identified by the same manner as described in Examples <3-20> and <3-21>. The reaction solutions were prepared by the same manner above and the same reaction was performed by adding or not adding 5 g/L of methionine in the each reaction solution. The reaction speed in the reaction solution without methionine was regarded as 100%, based on which the remaining activity in the presence of methionine was calculated as %.

Data set [2] in a line: Conversion reaction of O-acetylhomoserine with methylmercaptan by enzyme solutions (DTNB, OD415). The conditions noted are these: OAHS as a substrate. Here is the method:
(§2) First, O-succinylhomoserine (Sigma, USA) was dissolved in 0.1 M potassium phosphate buffer (pH 7.5) with the concentration of 3 mM. Pyridoxal 5′-phosphate (Sigma, USA) used as a coenzyme was added into the reaction solution with the final concentration of 10 μM. Methylmercaptan (Methylmercaptan, Tokyo Kasei Organic Chemicals, Japan) used as another substrate was added into the reaction solution with the final concentration of 2 mM. 1 ml of the reaction solution was placed in 37° C., to which 10 μL of each enzyme solution (protein conc.: 5 mg/ml) was added. 100 μL of the reaction solution was collected every 5-10 minutes and added into 900 μL of 4 mg/ml DTNB (Sigma, USA) solution. OD415 was measured to confirm the on-going of the reaction.
DTNB was reacted with SH group of methylmercaptan remaining in the reaction solution and thus synthesized a yellow substance. Thus, whether the reaction was going on or not was checked by observing the disappearance of yellow color of the reaction solution resulted from the conversion reaction of methylmercaptan into methionine.
Experiment was performed with O-acetylhomoserine by the same manner as described in Example <3-20>. O-acetylhomoserine was purified from the supernatant of fermented solution. The same reaction solutions and enzyme solutions as used for the experiment with O-succinylhomoserine were used for the reaction. […]

Data set [3] can be described thus: HPLC of final methionine and acetic acid after one-hour reaction with O-acetylhomoserine. Conditions: from O-acetylhomoserine. How it is done:
as §2, §1

Data set [4] can be described thus: HPLC of final methionine and succinic acid after one-hour reaction with O-succinylhomoserine. Conditions: from O-succinylhomoserine. Here is the method:
as §2
Upon completion of one-hour reaction, HPLC was performed to confirm the final productions of methionine and succinic acid.

B1: Leptospira meyeri MetY: O-acetylhomoserine sulfhydrylase derived from Leptospira meyeri (protein, UniProt P94890 1-442, looked up)
O-acetyl-L-homoserine …: MVGPSGESMPRNFKPETIALHGGQEPDPTTTSRAVPLYQTTSYVFKDTDHAARLFGLQEFGNIYTRLMNPTTDVLEKRVAALEGGVAALATASGQSAEMLALLNIVEAGQEIVASSSLYGGTYNLLHYTFPKLGIKVHFVDQSDPENFRKASNDKTRAFYAETLGNPKLDTLDIAAVSKVAKEVGVPLVIDNTMPSPYLVNPLKHGADIVVHSLTKFLGGHGTSIGGIIIDGGSFNWGNGKFKNFTEPDPSYHGLKFWEVFGKFEPFGGVNIAFILKARVQGLRDLGPAISPFNAWQILQGVETLPLRMERHSGNALKVAEFLQKHPKIEWVNYPGLSTDKNYATAKKYHERGLFGAIVGFEIKGGVEKAKKFIDGLELFSLLANIGDAKSLAIHPASTTHQQLTGPEQISAGVTPGFVRLSVGLENIDDILVDLEEALKNI
For B1, the “inhibition of enzyme activity by methionine, in words” value in data set [1] is “inhibited by methionine”. For the same molecule, the “enzyme activity with O-acetylhomoserine (FIG. 6), in words” value in data set [2] is “high enzyme activities”. Besides, in data set [3], the “amount of Acetic acid” value was 0.05 g/L and the “amount of Methionine” value was determined as 0.15 g/L.

B2: Pseudomonas aurogenosa MetZ: O-succinylhomoserine sulfhydrylase derived from Pseudomonas aeruginosa, cell extract enzyme solution (protein, UniProt P55218 1-403, looked up)
O-succinylhomoserine …: MTQDWDAGRLDSDLEGAAFDTLAVRAGQRRTPEGEHGEALFTTSSYVFRTAADAAARFAGEVPGNVYSRYTNPTVRTFEERIAALEGAEQAVATASGMSAILALVMSLCSSGDHVLVSRSVFGSTISLFDKYFKRFGIQVDYPPLSDLAAWEAACKPNTKLFFVESPSNPLAELVDIAALAEIAHAKGALLAVDNCFCTPALQQPLKLGADVVIHSATKYIDGQGRGMGGVVAGRGEQMKEVVGFLRTAGPTLSPFNAWLFLKGLETLRIRMQAHSASALALAEWLERQPGIERVYYAGLPSHPQHELARRQQSGFGAVVSFDVKGGRDAAWRFIDATRMVSITTNLGDTKTTIAHPATTSHGRLSPEDRARAGIGDSLIRVAVGLEDLDDLKADMARGLAAL
modifications: cell extract
notes: O-succinylhomoserine sulfhydrylase derived from Pseudomonas aeruginosa, cell extract enzyme solution
Turning to B2, in data set [4], the “amount of Methionine” value came to 0.22 g/L and the “amount of Succinic acid” value is given as 0.17 g/L.

B3: Escherichia Coli K12 MetB: cystathionine gamma synthase derived from E. coli, cell extract enzyme solution (protein, UniProt P00935 1-386, looked up)
Cystathionine gamma-synthase: MTRKQATIAVRSGLNDDEQYGCVVPPIHLSSTYNFTGFNEPRAHDYSRRGNPTRDVVQRALAELEGGAGAVLTNTGMSAIHLVTTVFLKPGDLLVAPHDCYGGSYRLFDSLAKRGCYRVLFVDQGDEQALRAALAEKPKLVLVESPSNPLLRVVDIAKICHLAREVGAVSVVDNTFLSPALQNPLALGADLVLHSCTKYLNGHSDVVAGVVIAKDPDVVTELAWWANNIGVTGGAFDSYLLLRGLRTLVPRMELAQRNAQAIVKYLQTQPLVKKLYHPSLPENQGHEIAARQQKGFGAMLSFELDGDEQTLRRFLGGLSLFTLAESLGGVESLISHAATMTHAGMAPEARAAAGISETLLRISTGIEDGEDLIADLENGFRAANKG
Take B3: in data set [4], the “amount of Methionine” value is listed as 0.14 g/L and the “amount of Succinic acid” value came to 0.1 g/L.
